From patent US20200207830A1, “TREM2 MUTANTS RESISTANT TO SHEDDASE CLEAVAGE” (NOVARTIS AG, priority 2017, published 2020)

T1: TREM2 stalk region derived synthetic peptide, Peptide 6 (H-SI cleavage site replaced with IDP)
T1 chain: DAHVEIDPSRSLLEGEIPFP

T2: TREM2 stalk region derived synthetic peptide, Peptide 4 (H-SI cleavage site replaced with IPP)
T2 chain: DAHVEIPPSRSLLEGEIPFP

T3: TREM2 stalk region derived synthetic peptide, Peptide 5 (H-SI cleavage site replaced with IPD)
T3 chain: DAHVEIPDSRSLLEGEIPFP

T4: TREM2 stalk region derived synthetic peptide, Peptide 3
T4 chain: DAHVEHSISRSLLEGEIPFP

B1: recombinant ADAM10 (protein)
chain: TTSAEKNTCQLYIQTDHLFFKYYGTREAVIAQISSHVKAIDTIYQTTDFSGIRNISFMVKRIRINTTADEKDPTNPFRFPNIGVEKFLELNSEQNHDDYCLAYVFTDRDFDDGVLGLAWVGAPSGSSGGICEKSKLYSDGKKKSLNTGIITVQNYGSHVPPKVSHITFAHEVGHNFGSPHDSGTECTPGESKNLGQKENGNYIMYARATSGDKLNNNKFSLCSIRNISQVLEKKRNNCFVESGQPICGNGMVEQGEECDCGYSDQCKDECCFDANQPEGRKCKLKPGKQCSPSQGPCCTAQCAFKSKSEKCRDDSDCAREGICNGFTALCPASDPKPNFTDCNRHTQVCINGQCAGSICEKYGLEECTCASSDGKDDKELCHVCCMKKMDPSTCASTGSVQWSRHFSGRTITLQPGSPCNDFRGYCDVFMRCRLVDADGPLARLKKAIFSPELYENIAE
B2: T2-double: human TREM2 mutant combining T2-YGG and T2-WFR mutations; SEQ ID NO: 48 (protein)
chain: MEPLRLLILLFVTELSGAHNTTVFQGVAGQSLQVSCPYDSMKHWGRRKAWCRQLGEKGPCQRVVSTHNLWLLSFLRRWNGSTAITDDTLGGTLTITLRNLQPHDAGLYQCQSLHGSEADTLRKVLVEVLADPLDHRDAGDLWFPGESESFEDAHVYGGWGGWGPEGEIWFRWTSILLLLACIFLIKILAASALWAAAWHGQKPGTHPPSELDCGHDPGYQLQTLPGLRDT

Assays:
[1] = biological target: T1, TREM2 stalk region derived synthetic …
[2] = biological target: T2, TREM2 stalk region derived synthetic …
[3] = biological target: T3, TREM2 stalk region derived synthetic …
[4] = biological target: T4, TREM2 stalk region derived synthetic …
[5] = tested on: BWZ-lacZ-mDAP12 cells; assay: Reporter gene assay in BWZ cells; type: cell-based; settings: stably expressed with mDAP12, activating anti-TREM2 mAb vs isotype control, 16 h, compared with BWZ-TREM2-WT cells
Procedure: BWZ thymoma reporter cells, which express lacZ under control of the promoter for nuclear factor of activated T cells (NFAT, Hsieh et al, Journal of Neurochemistry 109, 1144-1156, 2009) were transfected to co-express mDAP12 and WT hTREM2 or T2double TREM2. Cells were seeded in RPMI without phenol red supplemented with 2% FBS and 1% non-essential amino acids on high binding microtiter plates (Greiner) pre-coated with rat anti-mouse/human TREM2 mAb (R&D, MAB17291) or isotype control. Cell culture was continued for 16 h. Reporter gene activity was assessed with the Beta-glo assay system (Promega) according to the manufacturer's recommendations using an Envision 2104 multilabel reader (Perkin Elmer).
Next it was tested whether the T2-double-TREM2 construct retained functionality. To this end this mutant was stably transfected into BWZ cells that already expressed mouse DAP12 and a beta-Gal reporter driven by NFAT (Hsieh, Journal of Neurochemistry 109, 1144-1156, 2009). mDAP12 expressed without TREM2 in this cell lines represents background reporter gene activity (RGA) in this system. […] Thus, the T2-double-TREM2 construct retained TREM2 functions.

| Molecule | in vitro cleavage of peptide by ADAM10 [1] | in vitro cleavage of peptide by ADAM10 [2] | in vitro cleavage of peptide by ADAM10 [3] | in vitro cleavage of peptide by ADAM10, HPLC [4] | Reporter gene activity (RGA) after TREM2 activation [5] |
| --- | --- | --- | --- | --- | --- |
| B1 | Peptides 5 and 6 were slowly cleaved by ADAM10 (data not shown) | Peptide 4, with its IPP replacement for the H-SI cleavage site, appeared to be cleavage resistant in vitro | Peptides 5 and 6 were slowly cleaved by ADAM10 (data not shown) | The same analysis was carried out with ADAM10, and a very similar cleavage pattern was obtained (data not shown) |  |
| B2 |  |  |  |  | comparable activity |
